According to patent publication US20260167699A1 (Chugai, published 2026):
Positions count from the first letter of the chain named.

T1: FcγRIIa(R) extracellular domain, His-tagged (human, UniProt P12318 34-217)
T1 construct: extracellular domain; also called 2aR
T1 sequence: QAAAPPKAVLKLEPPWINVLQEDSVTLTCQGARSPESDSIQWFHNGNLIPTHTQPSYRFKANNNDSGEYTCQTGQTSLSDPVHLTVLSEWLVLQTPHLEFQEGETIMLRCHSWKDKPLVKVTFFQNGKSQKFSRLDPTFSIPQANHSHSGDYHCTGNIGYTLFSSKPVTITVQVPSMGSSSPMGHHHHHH

T2: FcγRIIa(H) extracellular domain, His-tagged (human, UniProt P12318 34-217)
T2 construct: extracellular domain; also called 2aH
T2 sequence: T1 sequence with R134H

T3: FcγRIIb extracellular domain, His-tagged (human, UniProt P31994 43-217)
T3 construct: extracellular domain; also called 2b
T3 sequence: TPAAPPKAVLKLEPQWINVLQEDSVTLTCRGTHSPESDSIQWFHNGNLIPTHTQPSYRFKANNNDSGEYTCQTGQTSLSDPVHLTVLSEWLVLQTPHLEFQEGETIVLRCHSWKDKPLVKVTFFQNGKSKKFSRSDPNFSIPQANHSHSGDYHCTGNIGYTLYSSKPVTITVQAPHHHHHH

B1: GpH7-A5/GpH7-B3 variant H268_14T/GpL16-k0 (antibody, human IgG1, kappa)
heavy 1: not shown
heavy 2: not shown
light: DIVMTQSPLSLPVTPGEPASISCQASESLVHSNRNTYLHWYLQKPGQSPQLLIYKVSNRFSGVPDRFSGSGSGTDFTLKISRVEAEDVGVYYCSQNTHVPPTFGQGTKVEIERTVAAPSVFIFPPSDEQLKSGTASVVCLLNNFYPREAKVQWKVDNALQSGNSQESVTEQDSKDSTYSLSSTLTLSKADYEKHKVYACEVTHQGLSSPVTKSFNRGEC
B2: GpH7-A5/GpH7-B3 variant H268_12R/GpL16-k0 (antibody, human IgG1, kappa)
heavy 1: not shown
heavy 2: not shown
light: B1 light
B3: GpH7-A5/GpH7-B3 variant H268_10E/GpL16-k0 (antibody, human IgG1, kappa)
heavy 1: not shown
heavy 2: not shown
light: B1 light
B4: GpH7-A5/GpH7-B3 variant E269_13S/GpL16-k0 (antibody, human IgG1, kappa)
heavy 1: not shown
heavy 2: not shown
light: B1 light
B5: GpH7-A5/GpH7-B3 variant H268_06M/GpL16-k0 (antibody, human IgG1, kappa)
heavy 1: not shown
heavy 2: not shown
light: B1 light
B6: GpH7-A5/GpH7-B3 variant H268_02A/GpL16-k0 (antibody, human IgG1, kappa)
heavy 1: not shown
heavy 2: not shown
light: B1 light
B7: GpH7-A5/GpH7-B3 variant D270_08L/GpL16-k0 (antibody, human IgG1, kappa)
heavy 1: not shown
heavy 2: not shown
light: B1 light
B8: GpH7-A5/GpH7-B3 variant D270_14T/GpL16-k0 (antibody, human IgG1, kappa)
heavy 1: not shown
heavy 2: not shown
light: B1 light
B9: GpH7-A5/GpH7-B3 variant E269_02A/GpL16-k0 (antibody, human IgG1, kappa)
heavy 1: not shown
heavy 2: not shown
light: B1 light
B10: GpH7-A5/GpH7-B3 variant H268_03V/GpL16-k0 (antibody, human IgG1, kappa)
heavy 1: not shown
heavy 2: not shown
light: B1 light
B11: GpH7-A5/GpH7-B3 variant G236_20W/GpL16-k0 (antibody, human IgG1, kappa)
heavy 1: not shown
heavy 2: not shown
light: B1 light
B12: GpH7-A5/GpH7-B3 variant E269_01G/GpL16-k0 (antibody, human IgG1, kappa)
heavy 1: not shown
heavy 2: not shown
light: B1 light
B13: GpH7-A5/GpH7-B3 variant G236_13S/GpL16-k0 (antibody, human IgG1, kappa)
heavy 1: not shown
heavy 2: not shown
light: B1 light
B14: GpH7-A5/GpH7-B3 variant E269_14T/GpL16-k0 (antibody, human IgG1, kappa)
heavy 1: not shown
heavy 2: not shown
light: B1 light
B15: GpH7-A5/GpH7-B3 variant G236_02A/GpL16-k0 (antibody, human IgG1, kappa)
heavy 1: not shown
heavy 2: not shown
light: B1 light
B16: GpH7-A5/GpH7-B3 variant G236_09D/GpL16-k0 (antibody, human IgG1, kappa)
heavy 1: not shown
heavy 2: not shown
light: B1 light
B17: GpH7-A5/GpH7-B3 variant E269_09D/GpL16-k0 (antibody, human IgG1, kappa)
heavy 1: not shown
heavy 2: not shown
light: B1 light
B18: GpH7-A5/GpH7-B3 variant H268_08L/GpL16-k0 (antibody, human IgG1, kappa)
heavy 1: not shown
heavy 2: not shown
light: B1 light
B19: GpH7-A5/GpH7-B3 variant D270_10E/GpL16-k0 (antibody, human IgG1, kappa)
heavy 1: not shown
heavy 2: not shown
light: B1 light
B20: GpH7-A5/GpH7-B3 variant H268_09D/GpL16-k0 (antibody, human IgG1, kappa)
heavy 1: not shown
heavy 2: not shown
light: B1 light
B21: GpH7-A5/GpH7-B3 variant H268_04F/GpL16-k0 (antibody, human IgG1, kappa)
heavy 1: not shown
heavy 2: not shown
light: B1 light
B22: GpH7-A5/GpH7-B3 variant H268_07I/GpL16-k0 (antibody, human IgG1, kappa)
heavy 1: not shown
heavy 2: not shown
light: B1 light
B23: GpH7-A5/GpH7-B3 variant G236_10E/GpL16-k0 (antibody, human IgG1, kappa)
heavy 1: not shown
heavy 2: not shown
light: B1 light
B24: GpH7-A5/GpH7-B3 variant H268_11K/GpL16-k0 (antibody, human IgG1, kappa)
heavy 1: not shown
heavy 2: not shown
light: B1 light
B25: GpH7-A5/GpH7-B3 variant H268_05P/GpL16-k0 (antibody, human IgG1, kappa)
heavy 1: not shown
heavy 2: not shown
light: B1 light
B26: GpH7-A5/GpH7-B3 variant H268_01G/GpL16-k0 (antibody, human IgG1, kappa)
heavy 1: not shown
heavy 2: not shown
light: B1 light
B27: GpH7-A5/GpH7-B3 variant Y300_14T/GpL16-k0 (antibody, human IgG1, kappa)
heavy 1: not shown
heavy 2: not shown
light: B1 light
notes: He Ab; copies: 1 + 1 + 2
B28: GpH7-A5/GpH7-B3 variant Y300_18N/GpL16-k0 (antibody, human IgG1, kappa)
heavy 1: not shown
heavy 2: not shown
light: B1 light
notes: He Ab; copies: 1 + 1 + 2
B29: GpH7-A5/GpH7-B3 variant Y300_19Q/GpL16-k0 (antibody, human IgG1, kappa)
heavy 1: not shown
heavy 2: not shown
light: B1 light
notes: He Ab; copies: 1 + 1 + 2
B30: GpH7-A5/GpH7-B3 variant Y300_16H/GpL16-k0 (antibody, human IgG1, kappa)
heavy 1: not shown
heavy 2: not shown
light: B1 light
notes: He Ab; copies: 1 + 1 + 2
B31: GpH7-A5/GpH7-B3 variant Y300_13S/GpL16-k0 (antibody, human IgG1, kappa)
heavy 1: not shown
heavy 2: not shown
light: B1 light
notes: He Ab; copies: 1 + 1 + 2
B32: GpH7-A5/GpH7-B3 variant Y300_20W/GpL16-k0 (antibody, human IgG1, kappa)
heavy 1: not shown
heavy 2: not shown
light: B1 light
notes: He Ab; copies: 1 + 1 + 2

Each binder was assayed against T4, FcγRIa extracellular domain, His-tagged (human, UniProt P12314 16-292) (assay: SPR, vs GpH7-A5/GpH7-B3/GpL16-k0 =100).
T4 construct: extracellular domain; also called 1a
T4 sequence (P12314 other isoform, or with tags, fused parts or gaps): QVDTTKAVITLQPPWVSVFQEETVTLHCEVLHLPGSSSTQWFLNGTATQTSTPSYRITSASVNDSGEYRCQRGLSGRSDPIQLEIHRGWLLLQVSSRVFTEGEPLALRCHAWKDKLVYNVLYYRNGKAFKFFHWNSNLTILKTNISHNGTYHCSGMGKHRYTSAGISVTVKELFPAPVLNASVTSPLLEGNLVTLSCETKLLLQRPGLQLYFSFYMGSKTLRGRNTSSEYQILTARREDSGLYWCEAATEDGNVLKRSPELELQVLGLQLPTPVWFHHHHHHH

Binder	He/Con 1a
B1	108 % of control
B2	103 % of control
B3	107 % of control
B4	99.8 % of control
B5	101 % of control
B6	105 % of control
B7	93.2 % of control
B8	89.5 % of control
B9	101 % of control
B10	103 % of control
B11	104 % of control
B12	101 % of control
B13	96 % of control
B14	102 % of control
B15	99.1 % of control
B16	95.5 % of control
B17	103 % of control
B18	104 % of control
B19	104 % of control
B20	106 % of control
B21	103 % of control
B22	104 % of control
B23	92.6 % of control
B24	102 % of control
B25	106 % of control
B26	104 % of control

The binders below were run against T1, FcγRIIa(R) extracellular domain, … (assay: SPR, vs GpH7-A5/GpH7-B3/GpL16-k0 =100).

Binder	He/Con 2aR
B1	100 % of control
B2	113 % of control
B3	159 % of control
B4	65.8 % of control
B5	87.2 % of control
B6	143 % of control
B7	62.8 % of control
B8	72.2 % of control
B9	70.2 % of control
B10	117 % of control
B11	77.3 % of control
B12	70.3 % of control
B13	135 % of control
B14	71 % of control
B15	145 % of control
B16	105 % of control
B17	113 % of control
B18	91.4 % of control
B19	85.7 % of control
B20	161 % of control
B21	105 % of control
B22	102 % of control
B23	124 % of control
B24	108 % of control
B25	114 % of control
B26	134 % of control

The binders below were run against T2, FcγRIIa(H) extracellular domain, … (assay: SPR, vs GpH7-A5/GpH7-B3/GpL16-k0 =100).

Binder	He/Con 2aH
B1	93.5 % of control
B2	90.9 % of control
B3	126 % of control
B4	70.7 % of control
B5	85.8 % of control
B6	115 % of control
B7	81.8 % of control
B8	81.3 % of control
B9	78.7 % of control
B10	100 % of control
B11	153 % of control
B12	72.3 % of control
B13	140 % of control
B14	70.3 % of control
B15	145 % of control
B16	93.5 % of control
B17	105 % of control
B18	85.9 % of control
B19	111 % of control
B20	134 % of control
B21	112 % of control
B22	91.2 % of control
B23	116 % of control
B24	89.8 % of control
B25	82.7 % of control
B26	100 % of control

These binders were tested against T3, FcγRIIb extracellular domain, His-tagged (assay: SPR, vs GpH7-A5/GpH7-B3/GpL16-k0 =100).

Binder	He/Con 2b
B1	90.3 % of control
B2	94.3 % of control
B3	242 % of control
B4	50.2 % of control
B5	69 % of control
B6	175 % of control
B7	50.8 % of control
B8	54.8 % of control
B9	52.4 % of control
B10	120 % of control
B11	60.7 % of control
B12	54.1 % of control
B13	101 % of control
B14	53.2 % of control
B15	101 % of control
B16	174 % of control
B17	110 % of control
B18	71.2 % of control
B19	72.5 % of control
B20	251 % of control
B21	94.2 % of control
B22	93.4 % of control
B23	115 % of control
B24	87.2 % of control
B25	122 % of control
B26	151 % of control

Each binder was assayed against T5, FcγRIIIa extracellular domain, His-tagged (human, UniProt P08637 17-208) (assay: SPR, vs GpH7-A5/GpH7-B3/GpL16-k0 =100).
T5 construct: extracellular domain; also called 3a
T5 sequence (P08637 other isoform, or with tags, fused parts or gaps): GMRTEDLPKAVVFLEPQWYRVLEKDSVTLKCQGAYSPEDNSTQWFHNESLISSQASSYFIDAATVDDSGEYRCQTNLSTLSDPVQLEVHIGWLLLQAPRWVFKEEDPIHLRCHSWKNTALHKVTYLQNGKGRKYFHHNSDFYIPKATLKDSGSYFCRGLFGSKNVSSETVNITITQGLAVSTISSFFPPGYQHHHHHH

Binder	He/Con 3a
B1	90.3 % of control
B2	76 % of control
B3	184 % of control
B4	62.1 % of control
B5	79.5 % of control
B6	121 % of control
B7	65.1 % of control
B8	55.4 % of control
B9	68 % of control
B10	91.4 % of control
B11	126 % of control
B12	61.6 % of control
B13	60.3 % of control
B14	59.7 % of control
B15	77 % of control
B16	66.2 % of control
B17	106 % of control
B18	75.9 % of control
B19	112 % of control
B20	195 % of control
B21	96 % of control
B22	84.1 % of control
B23	65.8 % of control
B24	81.6 % of control
B25	75.6 % of control
B26	95.7 % of control

These binders were tested against T6, FcγRIIIa extracellular domain, C-terminal His tag (human, UniProt P08637 17-208) (assay: SPR, binding activity relative to GpH7-A5/GpH7-B3/GpL16-k0 (=100)).
T6 construct: extracellular domain; also called 3a
T6 sequence (P08637 other isoform, or with tags, fused parts or gaps): as above

Binder	He/Con 3a
B27	92.8%
B28	96%
B29	105%
B30	102%
B31	80.3%
B32	101%
